Tests used:
[1] = biological target: recombinant Endothelial Protein C Receptor (EPCR) (UniProt Q9UNN8); experiment: static adhesion assay of infected erythrocytes on spots of recombinant protein; recombinant receptor adsorbed as 20 ul spots on petri dishes in PBS overnight at 4°C (two-fold dilutions 10 to 0.31 ug/ml), blocked with Albumax; Percoll-purified trophozoite-stage infected HbAS (sickle-trait) RBCs, 4x10^6 cells per ml, 1 h at 37°C; washed, fixed, Giemsa-stained, counted per image; four-parameter log-logistic fit
[2] = biological target: recombinant Endothelial Protein C Receptor (EPCR) (UniProt Q9UNN8); experiment: static adhesion assay of infected erythrocytes on spots of recombinant protein; recombinant receptor adsorbed as 20 ul spots on petri dishes in PBS overnight at 4°C (two-fold dilutions 10 to 0.31 ug/ml), blocked with Albumax; Percoll-purified trophozoite-stage infected HbAA RBCs, 4x10^6 cells per ml, 1 h at 37°C; washed, fixed, Giemsa-stained, counted per image; four-parameter log-logistic fit
recombinant CD36 [3] = biological target: recombinant CD36 (UniProt P16671); experiment: static adhesion assay of infected erythrocytes on spots of recombinant protein; recombinant receptor adsorbed as 20 ul spots on petri dishes in PBS overnight at 4°C (two-fold dilutions 10 to 0.31 ug/ml), blocked with Albumax; Percoll-purified trophozoite-stage infected HbAS (sickle-trait) RBCs, 4x10^6 cells per ml, 1 h at 37°C; washed, fixed, Giemsa-stained, counted per image; four-parameter log-logistic fit
recombinant CD36 [4] = biological target: recombinant CD36 (UniProt P16671); experiment: static adhesion assay of infected erythrocytes on spots of recombinant protein; recombinant receptor adsorbed as 20 ul spots on petri dishes in PBS overnight at 4°C (two-fold dilutions 10 to 0.31 ug/ml), blocked with Albumax; Percoll-purified trophozoite-stage infected HbAA RBCs, 4x10^6 cells per ml, 1 h at 37°C; washed, fixed, Giemsa-stained, counted per image; four-parameter log-logistic fit

Sequence of UniProt Q9UNN8 (Q9UNN8 18-210): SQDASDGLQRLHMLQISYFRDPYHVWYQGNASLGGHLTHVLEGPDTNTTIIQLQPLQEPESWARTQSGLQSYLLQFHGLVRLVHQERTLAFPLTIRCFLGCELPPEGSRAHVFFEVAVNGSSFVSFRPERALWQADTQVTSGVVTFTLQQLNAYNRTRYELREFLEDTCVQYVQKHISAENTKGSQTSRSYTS
Sequence of UniProt P16671 (P16671 whole entry): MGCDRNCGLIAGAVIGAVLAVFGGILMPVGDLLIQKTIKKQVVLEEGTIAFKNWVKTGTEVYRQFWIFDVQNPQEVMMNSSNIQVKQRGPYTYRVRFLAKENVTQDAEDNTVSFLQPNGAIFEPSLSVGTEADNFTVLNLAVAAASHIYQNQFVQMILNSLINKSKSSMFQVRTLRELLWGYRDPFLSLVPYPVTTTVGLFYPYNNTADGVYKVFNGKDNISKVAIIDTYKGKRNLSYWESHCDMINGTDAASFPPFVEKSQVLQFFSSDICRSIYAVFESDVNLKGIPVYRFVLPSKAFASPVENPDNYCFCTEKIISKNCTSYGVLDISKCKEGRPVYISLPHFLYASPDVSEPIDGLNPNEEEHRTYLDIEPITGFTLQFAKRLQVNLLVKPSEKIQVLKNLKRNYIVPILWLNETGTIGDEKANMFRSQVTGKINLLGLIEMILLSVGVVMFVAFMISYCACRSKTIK

Substance | EPCR spot concentration at estimated 50% adhesion [1] | EPCR spot concentration at estimated 50% adhesion [2] | CD36 spot concentration at estimated 50% adhesion (recombinant CD36 [3]) | CD36 spot concentration at estimated 50% adhesion (recombinant CD36 [4])
IT4var20 PfEMP1 (EPCR-binding P. falciparum Erythrocyte Membrane Protein 1 variant of strain IT4) (natural protein) | 0.5 µg/mL | 0.3 µg/mL |  | 
IT4var30 PfEMP1 (CD36-binding P. falciparum Erythrocyte Membrane Protein 1 variant of strain IT4) (natural protein) |  |  | 2.7 µg/mL | 2.5 µg/mL
